Assay results from patent publication US20170342349A1, “STABILIZED ENZYME COMPOSITIONS” (NOVOZYMES A/S, priority 2014, published 2017).

What was measured:
Assay in all cases: Ki fitted from Suc-AAPF-pNA activity in Model B detergent; IF relative to SEQ ID NO 3 comprising S173P + S175P + F180Y
[1] = target: TY145 (SEQ ID NO 3) variant Q70Y + S173P + S175P + F180Y
[2] = target: TY145 (SEQ ID NO 3) variant S173P + S175P + F180Y + L184F
[3] = target: TY145 (SEQ ID NO 3) variant S173P + S175P + F180Y + L184H
[4] = target: TY145 (SEQ ID NO 3) variant S173P + S175P + F180Y + G182A
[5] = target: TY145 (SEQ ID NO 3) variant S173P + S175P + I178Y + F180Y
[6] = target: TY145 (SEQ ID NO 3) variant S173P + S175P + I178F + F180Y
[7] = target: TY145 (SEQ ID NO 3) variant S114F + S173P + S175P + F180Y
[8] = target: TY145 (SEQ ID NO 3) variant Q70H + S173P + S175P + F180Y
Chain of TY145 (SEQ ID NO 3) variant Q70H + S173P + S175P + F180Y (chain, as listed by the source Q70H S173P S175P F180Y Q70H S173P S175P F180Y limits assumed): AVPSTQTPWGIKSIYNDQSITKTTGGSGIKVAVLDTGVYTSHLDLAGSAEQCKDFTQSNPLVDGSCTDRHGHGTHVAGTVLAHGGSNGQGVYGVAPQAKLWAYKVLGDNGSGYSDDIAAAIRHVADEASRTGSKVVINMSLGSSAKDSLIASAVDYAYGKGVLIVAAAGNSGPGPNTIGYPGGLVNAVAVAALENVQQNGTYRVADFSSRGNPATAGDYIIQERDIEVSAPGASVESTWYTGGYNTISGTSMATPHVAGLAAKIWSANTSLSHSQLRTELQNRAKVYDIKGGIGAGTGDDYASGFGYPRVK

[9] = target: TY145 (SEQ ID NO 3) variant S114A + S173P + S175P + F180Y
[10] = target: TY145 (SEQ ID NO 3) variant I150S + S173P + S175P + F180Y
[11] = target: TY145 (SEQ ID NO 3) variant S173P + S175P + F180Y + L184D
[12] = target: TY145 (SEQ ID NO 3) variant K146W + S173P + S175P + F180Y
[13] = target: TY145 (SEQ ID NO 3) variant K146A + S173P + S175P + F180Y
[14] = target: TY145 (SEQ ID NO 3) variant Q70A + S173P + S175P + F180Y
[15] = target: TY145 (SEQ ID NO 3) variant I150T + S173P + S175P + F180Y
Chain of TY145 (SEQ ID NO 3) variant I150T + S173P + S175P + F180Y (chain, as listed by the source I150T S173P S175P F180Y I150T S173P S175P F180Y limits assumed): as the sequence (chain, as listed by the source Q70H S173P S175P F180Y Q70H S173P S175P F180Y limits assumed) above, with H70Q, I150T counted along it

[16] = target: TY145 (SEQ ID NO 3) variant S173P + S175P + F180Y + L184Y
[17] = target: TY145 (SEQ ID NO 3) variant K146S + S173P + S175P + F180Y
[18] = target: TY145 (SEQ ID NO 3) variant S111I + S173P + S175P + F180Y
[19] = target: TY145 (SEQ ID NO 3) variant K146F + S173P + S175P + F180Y
[20] = target: TY145 (SEQ ID NO 3) variant S173P + S175P + F180Y + G182S
[21] = target: TY145 (SEQ ID NO 3) variant S114Q + S173P + S175P + F180Y
[22] = target: TY145 (SEQ ID NO 3) variant K146R + S173P + S175P + F180Y

Chain of TY145 (SEQ ID NO 3) variant Q70Y + S173P + S175P + F180Y (chain, as listed by the source Q70Y S173P S175P F180Y Q70Y S173P S175P F180Y limits assumed): as the sequence (chain, as listed by the source Q70H S173P S175P F180Y Q70H S173P S175P F180Y limits assumed) above, with H70Y counted along it

Substance: Inhibitor 1: Cbz-Gly-Ala-NHCH(CH2C6H4pOH)C(OH)(SO3Na)-H (peptide)
- IF (binding constant improvement factor, relative Ki) [1]: 7.44
- IF (binding constant improvement factor, relative Ki) [2]: 4.28
- IF (binding constant improvement factor, relative Ki) [3]: 2.5
- IF (binding constant improvement factor, relative Ki) [4]: 2.49
- IF (binding constant improvement factor, relative Ki) [5]: 2.15
- IF (binding constant improvement factor, relative Ki) [6]: 2.34
- IF (binding constant improvement factor, relative Ki) [7]: 1.41
- IF (binding constant improvement factor, relative Ki) [8]: 3.78
- IF (binding constant improvement factor, relative Ki) [9]: 3.33
- IF (binding constant improvement factor, relative Ki) [10]: 5.7
- IF (binding constant improvement factor, relative Ki) [11]: 3.28
- IF (binding constant improvement factor, relative Ki) [12]: 5.47
- IF (binding constant improvement factor, relative Ki) [13]: 3.72
- IF (binding constant improvement factor, relative Ki) [14]: 4.13
- IF (binding constant improvement factor, relative Ki) [15]: 4.15
- IF (binding constant improvement factor, relative Ki) [16]: 3.91
- IF (binding constant improvement factor, relative Ki) [17]: 1.13
- IF (binding constant improvement factor, relative Ki) [18]: 1.12
- IF (binding constant improvement factor, relative Ki) [19]: 5.17
- IF (binding constant improvement factor, relative Ki) [20]: 1.69
- IF (binding constant improvement factor, relative Ki) [21]: 2.03
- IF (binding constant improvement factor, relative Ki) [22]: 1.31
